Data published in the Human Domainome abundance scans (Beltran et al. 2025).
± gives the uncertainty stated by the source.

B1: CD2-associated protein, residues 271 to 331; numbered along this chain, Q9Y5K6 (parent)
chain: KEYCRTLFAYEGTNEDELTFKEGEIIHLISKETGEAGWWRGELNGKEGVFPDNFAVQINEL

Variants of: B1
Experiment: abundance fitness (aPCA) (normalised: wild type 0, dead -1); higher = more abundant; growth selection in yeast, the domain comes from the species named
Conditions: Homo sapiens
In the case of KEYCRTLFAYEGTNEDELTFKEGEIIHLISKETGEAGWWRGELNNKEGVFPDNFAVQINEL [G45N], the abundance fitness is reported as -0.359 ± 0.21.
With KEYCRTLFAYEGTNEDELTFKEGEIIHLISKETGEAGWWRGELNTKEGVFPDNFAVQINEL [G45T] the abundance fitness was -0.746 ± 0.13.
Variant KEYCRTLFAYEGTNEDELTFKEGEIIHLISKETGEAGWWRGELNHKEGVFPDNFAVQINEL [G45H] has an abundance fitness of -0.343 ± 0.19.
Variant KEYCRTLFAYEGTNEDELTFKEGEIIHLISKETGEAGWWRGELNWKEGVFPDNFAVQINEL [G45W] has an abundance fitness of -0.829 ± 0.22.
In the case of KEYCRTLFAYEGTNEDELTFKEGEIIHLISKETGEAGWWRGELNPKEGVFPDNFAVQINEL [G45P], the abundance fitness is reported as -0.784 ± 0.11.
KEYCRTLFAYEGTNEDELTFKEGEIIHLISKETGEAGWWRGELNCKEGVFPDNFAVQINEL [G45C] showed an abundance fitness of -0.322 ± 0.15.
In the case of KEYCRTLFAYEGTNEDELTFKEGEIIHLISKETGEAGWWRGELNMKEGVFPDNFAVQINEL [G45M], the abundance fitness is reported as -0.695 ± 0.12.
Work on KEYCRTLFAYEGTNEDELTFKEGEIIHLISKETGEAGWWRGELLGKEGVFPDNFAVQINEL [N44L] yielded an abundance fitness of -0.287 ± 0.048.
With KEYCRTLFAYEGTNEDELTFKEGEIIHLISKETGEAGWWRGELQGKEGVFPDNFAVQINEL [N44Q] the abundance fitness was -0.507 ± 0.35.
Variant KEYCRTLFAYEGTNEDELTFKEGEIIHLISKETGEAGWWRGELFGKEGVFPDNFAVQINEL [N44F] has an abundance fitness of -0.449 ± 0.062.
In the case of KEYCRTLFAYEGTNEDELTFKEGEIIHLISKETGEAGWWRGELMGKEGVFPDNFAVQINEL [N44M], the abundance fitness is reported as -0.172 ± 0.23.
Work on KEYCRTLFAYEGTNEDELTFKEGEIIHLISKETGEAGWWRGELHGKEGVFPDNFAVQINEL [N44H] yielded an abundance fitness of -0.03 ± 0.058.
KEYCRTLFAYEGTNEDELTFKEGEIIHLISKETGEAGWWRGELIGKEGVFPDNFAVQINEL [N44I] gave an abundance fitness of -0.787 ± 0.11.
KEYCRTLFAYEGTNEDELTFKEGEIIHLISKETGEAGWWRGELPGKEGVFPDNFAVQINEL [N44P] gave an abundance fitness of -1.14 ± 0.2.
In the case of KEYCRTLFAYEGTNEDELTFKEGEIIHLISKETGEAGWWRGELTGKEGVFPDNFAVQINEL [N44T], the abundance fitness is reported as -0.518 ± 0.064.
With KEYCRTLFAYEGTNEDELTFKEGEIIHLISKETGEAGWWRGELRGKEGVFPDNFAVQINEL [N44R] the abundance fitness was -0.073 ± 0.059.
Work on KEYCRTLFAYEGTNEDELTFKEGEIIHLISKETGEAGWWRGELWGKEGVFPDNFAVQINEL [N44W] yielded an abundance fitness of -0.568 ± 0.25.
KEYCRTLFAYEGTNEDELTFKEGEIIHLISKETGEAGWWRGELCGKEGVFPDNFAVQINEL [N44C] showed an abundance fitness of -0.273 ± 0.065.
In the case of KEYCRTLFAYEGTNEDELTFKEGEIIHLISKETGEAGWWRGELGGKEGVFPDNFAVQINEL [N44G], the abundance fitness is reported as -0.029 ± 0.08.
Work on KEYCRTLFAYEGTNEDELTFKEGEIIHLISKETGEAGWWRGELYGKEGVFPDNFAVQINEL [N44Y] yielded an abundance fitness of -0.363 ± 0.084.
With KEYCRTLFAYEGTNEDELTFKEGEIIHLISKETGEAGWWRGELDGKEGVFPDNFAVQINEL [N44D] the abundance fitness was -0.113 ± 0.065.
With KEYCRTLFAYEGTNEDELTFKEGEIIHLISKETGEAGWWRGELAGKEGVFPDNFAVQINEL [N44A] the abundance fitness was -0.152 ± 0.062.
KEYCRTLFAYEGTNEDELTFKEGEIIHLISKETGEAGWWRGELVGKEGVFPDNFAVQINEL [N44V] gave an abundance fitness of -0.791 ± 0.092.
In the case of KEYCRTLFAYEGTNEDELTFKEGEIIHLISKETGEAGWWRGELEGKEGVFPDNFAVQINEL [N44E], the abundance fitness is reported as -0.043 ± 0.11.
Variant KEYCRTLFAYEGTNEDELTFKEGEIIHLISKETGEAGWWRGELNGAEGVFPDNFAVQINEL [K46A] has an abundance fitness of -0.134 ± 0.091.
With KEYCRTLFAYEGTNEDELTFKEGEIIHLISKETGEAGWWRGELNGMEGVFPDNFAVQINEL [K46M] the abundance fitness was -0.235 ± 0.084.
KEYCRTLFAYEGTNEDELTFKEGEIIHLISKETGEAGWWRGELNGLEGVFPDNFAVQINEL [K46L] showed an abundance fitness of -0.223 ± 0.054.
KEYCRTLFAYEGTNEDELTFKEGEIIHLISKETGEAGWWRGELNGGEGVFPDNFAVQINEL [K46G] gave an abundance fitness of -0.924 ± 0.24.
In the case of KEYCRTLFAYEGTNEDELTFKEGEIIHLISKETGEAGWWRGELNGHEGVFPDNFAVQINEL [K46H], the abundance fitness is reported as 0.083 ± 0.12.
KEYCRTLFAYEGTNEDELTFKEGEIIHLISKETGEAGWWRGELNGEEGVFPDNFAVQINEL [K46E] showed an abundance fitness of -0.348 ± 0.13.
KEYCRTLFAYEGTNEDELTFKEGEIIHLISKETGEAGWWRGELNGQEGVFPDNFAVQINEL [K46Q] gave an abundance fitness of -0.265 ± 0.086.
KEYCRTLFAYEGTNEDELTFKEGEIIHLISKETGEAGWWRGELNGIEGVFPDNFAVQINEL [K46I] gave an abundance fitness of -0.309 ± 0.13.
KEYCRTLFAYEGTNEDELTFKEGEIIHLISKETGEAGWWRGELNGVEGVFPDNFAVQINEL [K46V] gave an abundance fitness of -0.033 ± 0.068.
Work on KEYCRTLFAYEGTNEDELTFKEGEIIHLISKETGEAGWWRGELNGPEGVFPDNFAVQINEL [K46P] yielded an abundance fitness of -1.05 ± 0.19.
With KEYCRTLFAYEGTNEDELTFKEGEIIHLISKETGEAGWWRGELNGCEGVFPDNFAVQINEL [K46C] the abundance fitness was -0.056 ± 0.27.
KEYCRTLFAYEGTNEDELTFKEGEIIHLISKETGEAGWWRGELNGSEGVFPDNFAVQINEL [K46S] showed an abundance fitness of -0.338 ± 0.062.
In the case of KEYCRTLFAYEGTNEDELTFKEGEIIHLISKETGEAGWWRGELNGREGVFPDNFAVQINEL [K46R], the abundance fitness is reported as 0.012 ± 0.056.
Work on KEYCRTLFAYEGTNEDELTFKEGEIIHLISKETGEAGWWRGELNGTEGVFPDNFAVQINEL [K46T] yielded an abundance fitness of -0.273 ± 0.074.
KEYCRTLFAYEGTNEDELTFKEGEIIHLISKETGEAGWWRGELNGNEGVFPDNFAVQINEL [K46N] showed an abundance fitness of -0.286 ± 0.18.
KEYCRTLFAYEGTNEDELTFKEGEIIHLISKETGEAGWWRGELNGDEGVFPDNFAVQINEL [K46D] showed an abundance fitness of -0.39 ± 0.19.
KEYCRTLFAYEGTNEDELTFKEGEIIHLISKETGEAGWWRGELNGYEGVFPDNFAVQINEL [K46Y] gave an abundance fitness of -0.34 ± 0.12.
For KEYCRTLFAYEGTNEDELTFKEGEIIHLISKETGEAGWWRGVLNGKEGVFPDNFAVQINEL [E42V], the abundance fitness was -0.159 ± 0.079.
For KEYCRTLFAYEGTNEDELTFKEGEIIHLISKETGEAGWWRGYLNGKEGVFPDNFAVQINEL [E42Y], the abundance fitness was -0.567 ± 0.18.
Work on KEYCRTLFAYEGTNEDELTFKEGEIIHLISKETGEAGWWRGWLNGKEGVFPDNFAVQINEL [E42W] yielded an abundance fitness of -0.313 ± 0.1.
